{
  "source": "paper PMC9038691",
  "about": "“A structural exposé of noncanonical molecular reactivity within the protein tyrosine phosphatase WPD loop” (Nature communications, 2022)",
  "proteins": {"B1": {"name": "AtPFA-DSP1 (full-length) (Arabidopsis thaliana) (protein)", "chain": "MKLVEKTTTTEQDNGEDFCRTIIEVSEVNRNVFQAPGGEADPFRVVSGEELHLIPPLNFSMVDNGIFRSGFPDSANFSFLQTLGLRSIIYLCPEPYPESNLQFLKSNGIRLFQFGIEGNKEPFVNIPDHKIRMALKVLLDEKNHPVLIHCKRGKHRTGCLVGCLRKLQKWCLTSIFDEYQRFAAAKARVSDQRFMEIFDVSSFSHIPMSFSCSIR", "notes": "full-length (codon-optimized cDNA, Genscript); pDest-566, N-terminal 6xHis-MBP tag cut with TEV protease; E. coli"}},
  "assay_in_all_cases": "malachite green Pi release",
  "type_in_all_cases": "biochemical, Arabidopsis thaliana",
  "settings_in_all_cases": "pH 7.2, 30 °C, 100 mM KCl, 0.8 mM MgCl2",
  "key": {"[1]": {"substrate": "O=P(O)(O)O[C@@H]1[C@@H](OP(=O)(O)OP(=O)(O)O)[C@H](OP(=O)(O)O)[C@@H](OP(=O)(O)O)[C@@H](O)[C@H]1OP(=O)(O)O"}, "[2]": {"substrate": "O=P(O)(O)O[C@@H]1[C@@H](OP(=O)(O)O)[C@H](OP(=O)(O)OP(=O)(O)O)[C@@H](OP(=O)(O)O)[C@H](OP(=O)(O)OP(=O)(O)O)[C@@H]1OP(=O)(O)O"}, "[3]": {"substrate": "O=P(O)(O)O[C@H]1[C@@H](OP(=O)(O)O)[C@H](OP(=O)(O)O)[C@@H](OP(=O)(O)OP(=O)(O)O)[C@H](OP(=O)(O)O)[C@H]1OP(=O)(O)O"}},
  "data": [
    {"protein": "B1", "values": [
      {"measurement": "Km", "setting": "[1]", "result": 78, "unit": "µM"},
      {"measurement": "Km", "setting": "[2]", "result": 44, "unit": "µM"},
      {"measurement": "Km", "setting": "[3]", "result": 60, "unit": "µM"}
    ]}
  ]
}
